From patent US20260263563A1, “Method of Treatment of a Thoracolumbar Deformity in a Human Subject with Achondroplasia” (Ascendis Pharma Growth Disorders A/S, priority 2023, published 2026)
Like-named read-outs stand apart in the source and are kept apart here.

Key:
[1] = tested on: Fgfr3^Y367C/+ mice
Source text: The Y367C mutation was introduced into exon 9 of the mouse Fgfr3 gene along with a NEO cassette flanked by LoxP recombination sites. Due to the CMV promoter, the expression of the Fgfr3 Fgfr3^Y367C/+ is ubiquitous. Off-spring consisted of both Fgfr3^Y367C/+ and Fgfr3+/+ wild-type (WT) littermates.
Survival of pups was monitored daily during the 15 days of treatment and registered in treatment diaries.

[2] = Experimental: A population PK model was used to characterize the sparse PK data.
Blood samples for determination of CNP-38 were acidified immediately after collection, using citrate acid buffer, to stabilize the prodrug in the sample thereby avoiding further liberation of CNP-38 from the prodrug. CNP-38 was determined in plasma (heparin) following protein precipitation and solid phase extraction and analyzed using liquid chromatography and tandem mass spectrometry detection. CNP-38 (38 amino acid peptide) was used as reference material and CNP-38 labelled with deuterium (D30-CNP-38) as internal standard (IS). Positive ions were monitored in multiple-reaction monitoring mode. The quantification was performed using the peak area ratios of analyte versus IS. The calibration curve fitting was done by 1/concentration-weighted linear regression.
During the trial, sparse blood samples were collected at different time points in the dosing interval, and the concentration of free CNP-38 was determined using the methodology described in example 6.
The values are provided as pmol/L CNP-38. […] The lower value in the range is the lowest free CNP-38 concentration, also referred to as the trough level or trough concentration. The number of subjects contributing with observations at the specified time interval are: 4, 8, 10 and 6 for the 6, 20, 50 and 100 μg/kg dose groups, respectively.

[3] = tested on: binding antibodies against CNP-38 (and CNP-22)
Experimental: All subjects in the trial are being monitored for binding and, if relevant, neutralizing antibodies to CNP. […] Samples are collected in all subjects at screening visit, prior to initial dose, and post-dose at 1, 3, 6, 9 months+every 3 months for the duration of the study. Samples are analyzed using a fully validated anti-CNP antibody assay.
Prior to analysis of clinical samples, the assay was fully validated following regulatory requirements from both EMAA and FDA. In this approach, biotinylated and ruthenylated CNP-38 were prepared as a master mix. Samples were incubated at minimum required dilution (MRD) in the master mix to form complex and then plated on an MSD streptavidin plate where the biotinylated CNP-38 could also bind. The samples were then detected by the ruthenium labelled CNP-38 within the bound complexes, using an MSD 5600 plate reader. The presence of anti-drug antibody present was determined by comparing the signal to a statistically derived threshold, the assay cut point.

[4] = tested on: healthy adult male subjects

Substance: Navepegritide [Compound (1)]
- tolerability, adverse clinical signs ([1]; Fgfr3^Y367C/+ pups, 15 days of treatment): well tolerated, and no adverse clinical signs were observed
- Number of mice surviving to day 15 ([1]; Fgfr3^Y367C/+ pups, 5.6 mg/kg/day s.c., 15 days from day 1 after birth, 14 mice included): 12
- Number of mice surviving to day 15 ([1]; Fgfr3^Y367C/+ pups, […] third day s.c., 13 mice included): 11
- survival of pups compared with untreated pups ([1]; either dose level, P<0.05, Log-rank (Mantel-Cox) test, untreated = vehicle treated and historic survival combined): significantly improved survival
- registered incidence of maternal infanticide ([1]; treated groups): marked reduction
- Estimated half-life for free CNP ([2]; 6 μg/kg/week): 101 h
- Free CNP-38, Mean (SD) ([2]; 6 μg/kg/week, 6.5 to 7.5 days after last dose): 1.7 (0.2) pmol/L
- Free CNP-38, Median (range) ([2]; 6 μg/kg/week, samples 6.5 to 7.5 days after last dose (trough), 4 subjects): 1.7 (1.4-1.9) pmol/L
- Estimated half-life for free CNP ([2]; 20 μg/kg/week): 106 h
- Free CNP-38, Mean (SD) ([2]; 20 μg/kg/week, 6.5 to 7.5 days after last dose): 2.9 (9.7) pmol/L
- Free CNP-38, Median (range) ([2]; 20 μg/kg/week, 6.5 to 7.5 days after last dose, 8 subjects): 2.9 (1.6-4.2) pmol/L
- Estimated half-life for free CNP ([2]; 50 μg/kg/week): 108 h
- Free CNP-38, Mean (SD) ([2]; 50 μg/kg/week, 6.5 to 7.5 days after last dose): 7.2 (2.5) pmol/L
- Free CNP-38, Median (range) ([2]; 50 μg/kg/week, 6.5 to 7.5 days after last dose, 10 subjects): 6.5 (4-16.9) pmol/L
- Estimated half-life for free CNP ([2]; 100 μg/kg/week): 110 h
- Free CNP-38, Mean (SD) ([2]; 100 μg/kg/week, 6.5 to 7.5 days after last dose): 14 (4.2) pmol/L
- Free CNP-38, Median (range) ([2]; 100 μg/kg/week, 6.5 to 7.5 days after last dose, 6 subjects): 13.8 (9.4-23) pmol/L
- Free CNP-38, Median (range) ([2]; 150 μg/kg/week, simulated with a population PK model): 22.3 (19.7-25) pmol/L
- exposure across dosing cohorts ([2]; 6, 20, 50 and 100 μg/kg): dose related increase in exposure
- Predicted median free CNP Cmax, Median (9-95th percentile) ([2]; BW 10 kg, 6 μg/kg/week): 2.9 (1.6-5.0) pg/ml
- Predicted median free CNP Cmax, Median (9-95th percentile) ([2]; BW 10 kg, 20 μg/kg/week): 10.4 (5.8-18.9) pg/ml
- Predicted median free CNP Cmax, Median (9-95th percentile) ([2]; BW 10 kg, 50 μg/kg/week): 26.5 (15.2-48.1) pg/ml
- Predicted median free CNP Cmax, Median (9-95th percentile) ([2]; BW 10 kg, 100 μg/kg/week): 53.1 (30.9-96.4) pg/ml
- Predicted median free CNP Cmax, Median (9-95th percentile) ([2]; BW 35 kg, 6 μg/kg/week): 1.8 (1.1-3.3) pg/ml
- Predicted median free CNP Cmax, Median (9-95th percentile) ([2]; BW 35 kg, 20 μg/kg/week): 6.6 (3.8-12.6) pg/ml
- Predicted median free CNP Cmax, Median (9-95th percentile) ([2]; BW 35 kg, 50 μg/kg/week): 18.3 (10.3-31.5) pg/ml
- Predicted median free CNP Cmax, Median (9-95th percentile) ([2]; BW 35 kg, 100 μg/kg/week): 36.6 (20.2-65.9) pg/ml
- Preliminary mean free CNP level ([2]; Cohort 1, 6 μg/kg, WEEK 0, 0.96 days post 1st dose): 1.86 pmol/L
- Preliminary mean free CNP level ([2]; Cohort 1, 6 μg/kg, WEEK 4, 27.98 days, all observations below LLOQ, set to LLOQ ([…])): 1.38 pmol/L
- Preliminary mean free CNP level ([2]; Cohort 1, 6 μg/kg, WEEK 8, 55.97 days): 1.68 pmol/L
- Preliminary mean free CNP level ([2]; Cohort 1, 6 μg/kg, WEEK 12, 79.02 days): 1.85 pmol/L
- Preliminary mean free CNP level ([2]; Cohort 1, 6 μg/kg, WEEK 26, 181.99 days): 1.48 pmol/L
- Preliminary mean free CNP level ([2]; Cohort 1, 6 μg/kg, WEEK 39, 271.94 days): 2.02 pmol/L
- Preliminary mean free CNP level ([2]; Cohort 1, 6 μg/kg, WEEK 52, 363.90 days): 1.58 pmol/L
- Preliminary mean free CNP level ([2]; Cohort 2, 20 μg/kg, WEEK 0, 1.01 days): 3.49 pmol/L
- Preliminary mean free CNP level ([2]; Cohort 2, 20 μg/kg, WEEK 4, 27.94 days): 3.27 pmol/L
- Preliminary mean free CNP level ([2]; Cohort 2, 20 μg/kg, WEEK 8, 56.27 days): 3.79 pmol/L
- Preliminary mean free CNP level ([2]; Cohort 2, 20 μg/kg, WEEK 12, 84.00 days): 3.84 pmol/L
- Preliminary mean free CNP level ([2]; Cohort 2, 20 μg/kg, WEEK 26, 182.00 days): 2.77 pmol/L
- Preliminary mean free CNP level ([2]; Cohort 2, 20 μg/kg, WEEK 39, 273.47 days): 5.19 pmol/L
- Preliminary mean free CNP level ([2]; Cohort 3, 50 μg/kg, WEEK 0, 1.00 days): 10.58 pmol/L
- Preliminary mean free CNP level ([2]; Cohort 3, 50 μg/kg, WEEK 4, 27.99 days): 7.29 pmol/L
- Preliminary mean free CNP level ([2]; Cohort 3, 50 μg/kg, WEEK 8, 56.00 days): 9.24 pmol/L
- Preliminary mean free CNP level ([2]; Cohort 3, 50 μg/kg, WEEK 12, 83.91 days): 7.62 pmol/L
- Preliminary mean free CNP level ([2]; Cohort 4, 100 μg/kg, WEEK 0, 0.99 days): 15.29 pmol/L
- half-life for free CNP ([2]; population PK model, weekly s.c. dosing): ~ 110 hours
- exposure to free CNP ([2]; weekly s.c. dosing): Sustained exposure to free CNP was observed
- anti-CNP binding antibodies ([3]; 1 to 9 months of repeated weekly exposure): No anti-CNP binding antibodies have been detected
- treatment emergent anti-CNP antibodies ([3]; 57 patients followed for up to 65 weeks): no treatment emergent anti-CNP antibodies were detected
- post-dose samples, anti-CNP antibodies ([3]; samples at 1, 3, 6, 9 months + every 3 months): confirmed negative
- blood pressure, heart rate, or safety laboratory test results ([4]; all investigated doses): No clinically relevant dose-dependent trends were observed
- mean apparent t1/2 of free CNP-38 ([4]; single s.c. dose up to 150 μg CNP/kg, dose-independent): 120 h
